Laboratory results as given in patent US20250019454A1.

Experiments:
[1] = molecular target: ΔCRD1-TNFR2 protein (with CRD1 deletion), on CHO-S cells (human) (UniProt P20333); assay: FACS on CHO-S cells with ΔCRD1-TNFR2, secondary antibody alone (background control)
[2] = molecular target: ΔCRD3-TNFR2 protein (with CRD3 deletion), on CHO-S cells (human) (UniProt P20333); assay: FACS on CHO-S cells with ΔCRD3-TNFR2, secondary antibody alone (background control)
[3] = molecular target: ΔCRD4-TNFR2 protein (with CRD4 deletion), on CHO-S cells (human) (UniProt P20333); assay: FACS on CHO-S cells with ΔCRD4-TNFR2, secondary antibody alone (background control)
Sequence of ΔCRD4-TNFR2 protein (with CRD4 deletion), on CHO-S cells (human) (P20333 other isoform, or with tags, fused parts or gaps mutant): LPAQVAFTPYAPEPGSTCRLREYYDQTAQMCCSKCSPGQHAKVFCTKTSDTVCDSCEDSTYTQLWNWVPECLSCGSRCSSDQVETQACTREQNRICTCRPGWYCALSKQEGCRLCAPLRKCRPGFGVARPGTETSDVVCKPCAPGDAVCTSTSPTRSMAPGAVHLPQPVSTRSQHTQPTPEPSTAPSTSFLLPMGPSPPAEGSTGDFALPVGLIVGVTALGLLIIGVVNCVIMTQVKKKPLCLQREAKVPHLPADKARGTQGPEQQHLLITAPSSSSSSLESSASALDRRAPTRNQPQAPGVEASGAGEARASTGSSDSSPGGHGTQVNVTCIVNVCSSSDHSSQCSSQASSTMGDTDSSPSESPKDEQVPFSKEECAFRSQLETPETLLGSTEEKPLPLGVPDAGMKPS

[4] = molecular target: ΔCRD2-TNFR2 protein (with CRD2 deletion), on CHO-S cells (human) (UniProt P20333); assay: FACS on CHO-S cells with ΔCRD2-TNFR2, secondary antibody alone (background control)
Sequence of ΔCRD2-TNFR2 protein (with CRD2 deletion), on CHO-S cells (human) (P20333 other isoform, or with tags, fused parts or gaps mutant): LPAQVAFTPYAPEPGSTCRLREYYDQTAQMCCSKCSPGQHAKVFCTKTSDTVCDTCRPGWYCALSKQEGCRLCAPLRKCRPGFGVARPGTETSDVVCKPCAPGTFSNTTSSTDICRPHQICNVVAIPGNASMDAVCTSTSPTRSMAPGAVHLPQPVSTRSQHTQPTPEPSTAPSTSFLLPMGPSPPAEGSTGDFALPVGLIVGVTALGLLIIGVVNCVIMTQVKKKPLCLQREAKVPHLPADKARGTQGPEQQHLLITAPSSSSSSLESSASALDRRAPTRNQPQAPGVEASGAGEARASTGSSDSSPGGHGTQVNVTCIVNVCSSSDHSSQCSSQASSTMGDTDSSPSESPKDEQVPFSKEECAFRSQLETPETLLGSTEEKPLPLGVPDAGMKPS

Sequence of ΔCRD1-TNFR2 protein (with CRD1 deletion), on CHO-S cells (human) (P20333 other isoform, or with tags, fused parts or gaps mutant): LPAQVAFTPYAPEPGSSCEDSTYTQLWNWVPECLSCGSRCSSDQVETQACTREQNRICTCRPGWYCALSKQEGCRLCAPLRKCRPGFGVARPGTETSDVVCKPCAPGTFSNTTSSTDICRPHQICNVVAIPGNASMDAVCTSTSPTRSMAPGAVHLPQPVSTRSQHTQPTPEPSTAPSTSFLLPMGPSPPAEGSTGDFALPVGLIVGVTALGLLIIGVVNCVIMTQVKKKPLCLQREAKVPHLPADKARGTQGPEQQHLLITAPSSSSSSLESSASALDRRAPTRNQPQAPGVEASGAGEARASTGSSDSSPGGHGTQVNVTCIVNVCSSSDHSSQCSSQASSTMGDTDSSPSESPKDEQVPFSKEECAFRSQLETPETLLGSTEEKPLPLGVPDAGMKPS
Sequence of ΔCRD3-TNFR2 protein (with CRD3 deletion), on CHO-S cells (human) (P20333 other isoform, or with tags, fused parts or gaps mutant): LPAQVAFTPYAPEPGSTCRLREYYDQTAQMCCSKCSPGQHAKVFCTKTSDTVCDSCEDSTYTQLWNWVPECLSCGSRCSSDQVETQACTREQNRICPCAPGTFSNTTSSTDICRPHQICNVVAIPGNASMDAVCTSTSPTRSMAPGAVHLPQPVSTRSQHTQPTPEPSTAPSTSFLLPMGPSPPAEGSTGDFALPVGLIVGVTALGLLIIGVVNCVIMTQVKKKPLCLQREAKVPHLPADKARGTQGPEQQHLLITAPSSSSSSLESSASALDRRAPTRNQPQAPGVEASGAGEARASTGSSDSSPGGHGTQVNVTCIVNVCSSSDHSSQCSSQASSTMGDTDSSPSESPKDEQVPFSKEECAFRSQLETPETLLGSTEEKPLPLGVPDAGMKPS

Secondary antibody (Alexa Fluor 647 AffiniPure F(ab')2 Fragment Goat Anti-Human IgG, Fcγ fragment specific, Jackson ImmunoResearch)
positive rate of binding (% of cells) [1]: 10.2% | positive rate of binding (% of cells) [2]: 0.62% | positive rate of binding (% of cells) [3]: 1.02% | positive rate of binding (% of cells) [4]: 7.33%
